Patent publication US5602102A, “Dipeptidyl peptidase-I inhibitors and uses thereof” (Board of Regents, The Univ. of TX System, priority 1992, dated 1997)
Each block holds one compound with its values, some of them ahead of it. Where a SMILES comes first, the peptide text is derived from it. The star is where a group is joined. Cbz = O=C(OCc1ccccc1)*; CHN2 = [N-]=[N+]=C*

What was measured:
[1] = biological target: human dipeptidyl peptidase-I (Homo sapiens, UniProt P53634); test: Effect of protease inhibitors on DPPI activity (purified enzyme); format: biochemical; design: Human DPPI is now established to constitute a 200,000 Da glycoprotein with 24,000 Da subunits; from tissue; host or cells: human cadaveric spleen; details: screening conditions pH 5.5
Method: Note. Purified human dipeptidyl peptidaseI (0.4 μg) was preincubated
with each of the inhibitors at the stated concentration for 15 min at
37° C.. Each sample was diluted 3fold with assay buffer containing
substrate and incubated for an additional 20 min.

[2] = biological target: T1, BLT esterase (granzyme A) (Mus musculus, UniProt P11032); test: BLT esterase activity in granule fractions of control CD8(+) CTL, in vitro incubation with inhibitor; format: biochemical, murine; details: in vitro incubation with 1 mM
T1 construct: endogenous in cells; host or cells: alloreactive murine CD8(+) T cells, whole cells or Percoll granule fractions
Method: 193, Academic Press, New York).
Cells were incubated for 5 minutes on ice in hypotonic homogenization buffer (0.1× PBS salts, 1 mM MgCl2). The cells were disrupted with a glass pestle homogenizer and isotonic conditions restored by the addition of 10× PBS salts. The homogenates were cleared of cell debris and intact cells by centrifugation at 600 xg for 2 minutes. The soluble extracts were layered on discontinuous Percoll gradients (6 ml 39%, 6 ml 90% Percoll) and centrifuged .for one hour at 17,000 xg. The gradients were fractionated by removing 1 ml aliquots from the top.
Alloreactive CD8(+) T-cells were homogenized and fractionated on discontinuous Percoll gradients.

[3] = biological target: human granzyme A proenzyme (human) (UniProt P12544)
[4] = biological target: propeptide-bearing form of human cathepsin G (human) (UniProt P08311)
[5] = biological target: human leukocyte elastase proenzyme (human) (UniProt P08246)
[6] = biological target: Suc-Ala-Ala-Ala-pNA
[7] = biological target: Gly-Phe-AMC
[8] = biological target: Gly-Arg-MNA
[9] = biological target: Arg-Arg-βNA
[10] = biological target: CBZ-Gly-Pro-Arg-AMC
[11] = biological target: CBZ-Val-Leu-Arg-MNA
[12] = biological target: Asp-Ala-βNA
[13] = biological target: CBZ-Arg-Arg-βNA
[14] = biological target: Ala-Ala-Val-Ala-pNA
[15] = biological target: Gly-Phe-pNA
[16] = biological target: Suc-Ala-Ala-Pro-Phe-pNA
[17] = biological target: Ala-Ala-pNA
[18] = biological target: Gly-Phe-MNA
[19] = biological target: Gly-Phe-βNA
[20] = biological target: Pro-Phe-Arg-AMC
[21] = biological target: Gly-Pro-βNA
[22] = biological target: Ser-Tyr-MNA
[23] = biological target: Gly-Pro-MNA
[24] = biological target: Ser-Tyr-βNA
[25] = test system: BLT esterase (granzyme A); test: BLT esterase activity in IL2 activated human PBL; format: cell-based; details: IL2 activated Leu--Leu--OMe treated PBL
From the text: The cells were then harvested, disrupted in a dounce homogenizer, the nuclei pelleted and residual intact cells removed by centrifugation and the granule fraction localized on discontinuous Percoll gradients. […] Thus, Leu--Leu--OMe sensitive, DPPI enriched cells are the source of BLT esterase in such IL2 activated cultures.

[26] = test system: CTL precursors; test: MLC activated anti-H-2 specific CTL from spleen cells; format: in vivo, murine; details: spleen cells of saline injected mice treated with 250 μM Leu-Leu-Ome
From the text: (§1) The Yac-1 represents a standard target for natural killer (NK) cells.
Unlike control cells, spleen cells in which DPPI activity was inhibited were resistant to any discernible toxic effects of Leu--Leu--OMe on NK function of the capacity to generate anti-H-2^d specific CTL.

[27] = test system: NK cells (Yac-1 targets); test: NK function of spleen cells, specific lysis of Yac-1; format: in vivo, murine; details: spleen cells of saline injected mice treated with 250 μM Leu-Leu-Ome
From the text: as §1

[28] = biological target: DPPI (Homo sapiens, UniProt P53634); details: cited from earlier work
[29] = biological target: murine granzyme A proenzyme (murine) (UniProt P11032); details: scale: Δabsorbance410/hour per cells

T1 sequence (P11032 29-260): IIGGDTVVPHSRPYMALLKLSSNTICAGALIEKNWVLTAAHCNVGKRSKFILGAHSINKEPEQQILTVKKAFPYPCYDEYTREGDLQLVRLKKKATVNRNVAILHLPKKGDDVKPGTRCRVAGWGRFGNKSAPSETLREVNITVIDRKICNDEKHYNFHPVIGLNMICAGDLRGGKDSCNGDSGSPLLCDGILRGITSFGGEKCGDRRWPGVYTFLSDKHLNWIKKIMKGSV

Compound: O=S(=O)(F)Cc1ccccc1 [PMSF, phenylmethylsulfonylfluoride]
effect on DPPI activity (in words) [1]: no effect
BLT esterase activity in granule fractions inhibited [2]: > 95%

generation of granzyme A (BLT esterase) activity in human LAK cells with endogenous DPPI inhibited [3]: < 90 % reduction
processing of newly synthesized cathepsin G to the active form in U-937 cells with endogenous DPPI inhibited (3H-Ile pulse-chase, aprotinin-agarose, radiosequencing) [4]: < 10 % of control
generation of elastase activity in U-937 cells with endogenous DPPI inhibited for 48 hours [5]: 65 % decrease
hydrolysis of synthetic peptide substrate by purified human DPPI (values at 100 µM and 500 µM substrate; value given is at 500 µM) [6]: 0 not printed
hydrolysis of synthetic peptide substrate by purified human DPPI (values at 100 µM and 500 µM substrate; value given is at 500 µM) [7]: 6120 not printed
hydrolysis of synthetic peptide substrate by purified human DPPI (values at 100 µM and 500 µM substrate; value given is at 500 µM) [8]: 4750 not printed
hydrolysis of synthetic peptide substrate by purified human DPPI (values at 100 µM and 500 µM substrate; value given is at 500 µM) [9]: 0 not printed
hydrolysis of synthetic peptide substrate by purified human DPPI (values at 100 µM and 500 µM substrate; value given is at 500 µM) [10]: 0 not printed
hydrolysis of synthetic peptide substrate by purified human DPPI (values at 100 µM and 500 µM substrate; value given is at 500 µM) [11]: 0 not printed
hydrolysis of synthetic peptide substrate by purified human DPPI (values at 100 µM and 500 µM substrate; value given is at 500 µM) [12]: 1000 not printed
hydrolysis of synthetic peptide substrate by purified human DPPI (values at 100 µM and 500 µM substrate; value given is at 500 µM) [13]: 0 not printed
hydrolysis of synthetic peptide substrate by purified human DPPI (values at 100 µM and 500 µM substrate; value given is at 500 µM) [14]: 120 not printed
hydrolysis of synthetic peptide substrate by purified human DPPI (values at 100 µM and 500 µM substrate; value given is at 500 µM) [15]: 380 not printed
hydrolysis of synthetic peptide substrate by purified human DPPI (values at 100 µM and 500 µM substrate; value given is at 500 µM) [16]: 0 not printed
hydrolysis of synthetic peptide substrate by purified human DPPI (values at 100 µM and 500 µM substrate; value given is at 500 µM) [17]: 1000 not printed
hydrolysis of synthetic peptide substrate by purified human DPPI (values at 100 µM and 500 µM substrate; value given is at 500 µM) [18]: 5750 not printed
hydrolysis of synthetic peptide substrate by purified human DPPI (values at 100 µM and 500 µM substrate; value given is at 500 µM) [19]: 4380 not printed
hydrolysis of synthetic peptide substrate by purified human DPPI (values at 100 µM and 500 µM substrate; value given is at 500 µM) [20]: 0 not printed
hydrolysis of synthetic peptide substrate by purified human DPPI (values at 100 µM and 500 µM substrate; value given is at 500 µM) [21]: 0 not printed
hydrolysis of synthetic peptide substrate by purified human DPPI (values at 100 µM and 500 µM substrate; value given is at 500 µM) [22]: 1750 not printed
hydrolysis of synthetic peptide substrate by purified human DPPI (values at 100 µM and 500 µM substrate; value given is at 500 µM) [23]: 0 not printed
hydrolysis of synthetic peptide substrate by purified human DPPI (values at 100 µM and 500 µM substrate; value given is at 500 µM) [24]: 2000 not printed
Compound: human dipeptidyl peptidase-I (from UniProt P53634) (enzyme)

BLT esterase activity [25]: could not be detected
Compound: COC(=O)[C@H](CC(C)C)NC(=O)[C@@H](N)CC(C)C [Leu--Leu--OMe]
MLC Activated Anti-H-2° Spec. CTL ([26]; 20:1): 1
MLC Activated Anti-H-2° Spec. CTL ([26]; 80:1): 3
NK Function % Specific Lysis Yac-1 ([27]; 20:1): < 1 % Specific Lysis
NK Function % Specific Lysis Yac-1 ([27]; 80:1): < 1 % Specific Lysis

Compound: [N-]=[N+]=CC(=O)C(Cc1ccccc1)NC(=O)CNC(=O)C(Cc1ccccc1)NC(=O)OCc1ccccc1 (stereo not drawn) [Z--Phe--Gly--Phe--CHN2] (Cbz-Phe-Gly-Phe-CHN2; configuration not given here)
less reactive with DPPI than Gly--Phe--CHN2 [28]: 3 orders of magnitude

generation of BLT esterase activity in murine alloreactive CD8(+) T cells with DPPI inhibited [29]: 3.3
Compound: murine dipeptidyl peptidase-I (from UniProt P97821) (enzyme)
